According to publication PMC11525196 (Nature, 2024):
Read-outs that look alike come from different tables or passages of the source.

Tests used:
cryo-EM structure [1] = biological target: the molecule itself; experiment: cryo-EM structure
cryo-EM structure [2] = biological target: the molecule itself; experiment: cryo-EM structure; remark: listed apart in the source
[3] = biological target: T1, LYCHOS(F352A/W678R/N145A)-Flag-NLuc (human, UniProt Q7Z3F1 1-870, F352A | W678R | N145A); experiment: FRET or BRET
T1 sequence: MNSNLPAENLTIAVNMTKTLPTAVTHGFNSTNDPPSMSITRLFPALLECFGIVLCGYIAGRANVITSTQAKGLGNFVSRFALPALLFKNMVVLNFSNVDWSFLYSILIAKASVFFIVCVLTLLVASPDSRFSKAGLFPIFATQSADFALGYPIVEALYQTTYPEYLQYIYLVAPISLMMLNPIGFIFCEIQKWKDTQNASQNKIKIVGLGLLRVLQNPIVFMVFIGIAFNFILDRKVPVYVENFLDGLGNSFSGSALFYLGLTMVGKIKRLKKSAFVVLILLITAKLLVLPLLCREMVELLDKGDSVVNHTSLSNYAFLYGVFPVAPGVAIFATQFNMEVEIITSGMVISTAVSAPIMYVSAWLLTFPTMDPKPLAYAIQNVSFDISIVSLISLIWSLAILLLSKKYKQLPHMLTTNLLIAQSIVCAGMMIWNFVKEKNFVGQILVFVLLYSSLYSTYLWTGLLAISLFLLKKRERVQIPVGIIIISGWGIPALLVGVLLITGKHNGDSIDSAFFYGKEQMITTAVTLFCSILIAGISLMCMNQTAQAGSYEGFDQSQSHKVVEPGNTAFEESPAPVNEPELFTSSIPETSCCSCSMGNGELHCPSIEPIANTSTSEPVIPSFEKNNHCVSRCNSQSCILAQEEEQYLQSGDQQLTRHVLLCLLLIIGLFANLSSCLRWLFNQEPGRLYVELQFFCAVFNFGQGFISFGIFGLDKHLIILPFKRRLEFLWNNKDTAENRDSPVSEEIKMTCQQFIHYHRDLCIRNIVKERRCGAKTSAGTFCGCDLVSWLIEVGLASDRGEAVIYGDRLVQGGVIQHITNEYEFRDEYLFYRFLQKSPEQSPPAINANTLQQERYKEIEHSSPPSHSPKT

LYCHOS(N145A)-Flag-NLuc = biological target: T2, LYCHOS(N145A)-Flag-NLuc (human, UniProt Q7Z3F1 1-870, N145A); experiment: FRET or BRET
T2 sequence: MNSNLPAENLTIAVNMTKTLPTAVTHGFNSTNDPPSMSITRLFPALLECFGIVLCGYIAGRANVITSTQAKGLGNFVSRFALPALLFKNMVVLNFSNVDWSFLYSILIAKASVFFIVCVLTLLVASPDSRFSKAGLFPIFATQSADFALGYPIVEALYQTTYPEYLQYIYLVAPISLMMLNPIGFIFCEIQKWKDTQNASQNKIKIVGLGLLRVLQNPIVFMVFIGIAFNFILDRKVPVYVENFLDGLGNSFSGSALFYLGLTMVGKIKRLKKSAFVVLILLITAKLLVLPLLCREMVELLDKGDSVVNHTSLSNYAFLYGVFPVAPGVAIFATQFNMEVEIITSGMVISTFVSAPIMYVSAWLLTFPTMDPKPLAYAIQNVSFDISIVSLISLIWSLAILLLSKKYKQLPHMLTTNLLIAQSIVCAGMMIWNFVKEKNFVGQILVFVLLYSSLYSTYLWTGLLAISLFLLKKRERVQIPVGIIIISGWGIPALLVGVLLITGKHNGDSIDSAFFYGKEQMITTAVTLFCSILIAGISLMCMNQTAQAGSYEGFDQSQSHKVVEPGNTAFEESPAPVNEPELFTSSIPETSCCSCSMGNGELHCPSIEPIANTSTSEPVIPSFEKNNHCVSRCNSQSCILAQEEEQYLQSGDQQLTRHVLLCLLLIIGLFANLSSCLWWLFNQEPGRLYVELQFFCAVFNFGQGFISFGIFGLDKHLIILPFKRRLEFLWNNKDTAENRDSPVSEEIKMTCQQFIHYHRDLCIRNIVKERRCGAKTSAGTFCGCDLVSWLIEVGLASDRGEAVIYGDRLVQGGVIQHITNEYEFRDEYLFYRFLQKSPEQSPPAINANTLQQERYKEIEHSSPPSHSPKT

B1: LYCHOS (GPR155), wild type, C-terminal Flag tag, expressed in Sf9 cells (natural protein, human)
chain: MNSNLPAENLTIAVNMTKTLPTAVTHGFNSTNDPPSMSITRLFPALLECFGIVLCGYIAGRANVITSTQAKGLGNFVSRFALPALLFKNMVVLNFSNVDWSFLYSILIAKASVFFIVCVLTLLVASPDSRFSKAGLFPIFATQSNDFALGYPIVEALYQTTYPEYLQYIYLVAPISLMMLNPIGFIFCEIQKWKDTQNASQNKIKIVGLGLLRVLQNPIVFMVFIGIAFNFILDRKVPVYVENFLDGLGNSFSGSALFYLGLTMVGKIKRLKKSAFVVLILLITAKLLVLPLLCREMVELLDKGDSVVNHTSLSNYAFLYGVFPVAPGVAIFATQFNMEVEIITSGMVISTFVSAPIMYVSAWLLTFPTMDPKPLAYAIQNVSFDISIVSLISLIWSLAILLLSKKYKQLPHMLTTNLLIAQSIVCAGMMIWNFVKEKNFVGQILVFVLLYSSLYSTYLWTGLLAISLFLLKKRERVQIPVGIIIISGWGIPALLVGVLLITGKHNGDSIDSAFFYGKEQMITTAVTLFCSILIAGISLMCMNQTAQAGSYEGFDQSQSHKVVEPGNTAFEESPAPVNEPELFTSSIPETSCCSCSMGNGELHCPSIEPIANTSTSEPVIPSFEKNNHCVSRCNSQSCILAQEEEQYLQSGDQQLTRHVLLCLLLIIGLFANLSSCLWWLFNQEPGRLYVELQFFCAVFNFGQGFISFGIFGLDKHLIILPFKRRLEFLWNNKDTAENRDSPVSEEIKMTCQQFIHYHRDLCIRNIVKERRCGAKTSAGTFCGCDLVSWLIEVGLASDRGEAVIYGDRLVQGGVIQHITNEYEFRDEYLFYRFLQKSPEQSPPAINANTLQQERYKEIEHSSPPSHSPKT
With B1 the “stoichiometry N” value (cryo-EM structure [1]) was 2.

B2: LYCHOS (GPR155), wild type, C-terminal Flag tag, expressed in Expi293F cells (natural protein, human)
chain: MNSNLPAENLTIAVNMTKTLPTAVTHGFNSTNDPPSMSITRLFPALLECFGIVLCGYIAGRANVITSTQAKGLGNFVSRFALPALLFKNMVVLNFSNVDWSFLYSILIAKASVFFIVCVLTLLVASPDSRFSKAGLFPIFATQSNDFALGYPIVEALYQTTYPEYLQYIYLVAPISLMMLNPIGFIFCEIQKWKDTQNASQNKIKIVGLGLLRVLQNPIVFMVFIGIAFNFILDRKVPVYVENFLDGLGNSFSGSALFYLGLTMVGKIKRLKKSAFVVLILLITAKLLVLPLLCREMVELLDKGDSVVNHTSLSNYAFLYGVFPVAPGVAIFATQFNMEVEIITSGMVISTFVSAPIMYVSAWLLTFPTMDPKPLAYAIQNVSFDISIVSLISLIWSLAILLLSKKYKQLPHMLTTNLLIAQSIVCAGMMIWNFVKEKNFVGQILVFVLLYSSLYSTYLWTGLLAISLFLLKKRERVQIPVGIIIISGWGIPALLVGVLLITGKHNGDSIDSAFFYGKEQMITTAVTLFCSILIAGISLMCMNQTAQAGSYEGFDQSQSHKVVEPGNTAFEESPAPVNEPELFTSSIPETSCCSCSMGNGELHCPSIEPIANTSTSEPVIPSFEKNNHCVSRCNSQSCILAQEEEQYLQSGDQQLTRHVLLCLLLIIGLFANLSSCLWWLFNQEPGRLYVELQFFCAVFNFGQGFISFGIFGLDKHLIILPFKRRLEFLWNNKDTAENRDSPVSEEIKMTCQQFIHYHRDLCIRNIVKERRCGAKTSAGTFCGCDLVSWLIEVGLASDRGEAVIYGDRLVQGGVIQHITNEYEFRDEYLFYRFLQKSPEQSPPAINANTLQQERYKEIEHSSPPSHSPKT
In the case of B2, the “stoichiometry N” value (cryo-EM structure [2]) is reported as 2.

B3: HA-cpmCitrine-NPRL2 (natural protein, UniProt Q8WTW4 1-380, looked up)
chain: MGSGCRIECIFFSEFHPTLGPKITYQVPEDFISRELFDTVQVYIITKPELQNKLITVTAMEKKLIGCPVCIEHKKYSRNALLFNLGFVCDAQAKTCALEPIVKKLAGYLTTLELESSFVSMEESKQKLVPIMTILLEELNASGRCTLPIDESNTIHLKVIEQRPDPPVAQEYDVPVFTKDKEDFFNSQWDLTTQQILPYIDGFRHIQKISAEADVELNLVRIAIQNLLYYGVVTLVSILQYSNVYCPTPKVQDLVDDKSLQEACLSYVTKQGHKRASLRDVFQLYCSLSPGTTVRDLIGRHPQQLQHVDERKLIQFGLMKNLIRRLQKYPVRVTREEQSHPARLYTGCHSYDEICCKTGMSYHELDERLENDPNIIICWK
For B3, the BRET50 [3] was 0.03 ± 0.01 and the BRET50 (LYCHOS(N145A)-Flag-NLuc) was 0.23 ± 0.06.
